System: TspRI (Thermus sp.?)
Assay: cleavage_in_vitro
Details: destruction of wild type PCR product during qPCR, 85 C denaturation

**Q.** Which activity does the source give for “AGACATACTTATTGACTCTAAGAGGAAAGATGAAGTACTATGTTTTAAAGAATATTATATTACAGAATTATAGAAATTAGATCTCTTACCTAAACTCTTCATAAAGCTTGCTCTGATAGGAAAATGAGATCTACTGTTTTCCTTTACTTACTACACCTCAGATATATTTCTTCATGAAGACCTCACAGTAAAAATAGGTGATTTTGGTCTAGCTACAGTGAAATCTCGATGGAGTGAGTCCCATCAGTTTGAACAGTTGTCTGGATCCATTTTGTGGATGGTAAGAATTGAGGCTATTTTTCCACTGATTAAATTTTTGGCCCTGAGATGCTGCTGAGTTACTAGAAAGTCATTGAAGGTCTCAACTATAGTATTTTCATAGTTCCCAGT (double strand) [B-raf synthetic wild type template]” here?
**A.** Its activity is greater than 99%.

— patent US20140322717
